Experiments:
MCF-7 cells = test: Apoptosis of MCF-7 cells transfected with cytosolic Omi-GFP fusion proteins; format: cell-based; conditions: 36 hours following transfection
Procedure: FIG. 20 provides schematic diagrams of the Omi-GFP and GFP-IETD-Omi constructs used to assay the ability of Omi to induce apoptosis or to enhance apoptosis by other stimuli.
FIG. 21 is a bar graphic representation of the percentages of GFP-positive apoptotic MCF-7 cells 36 hours following transfection with M-Omi-S/A-GFP or pEGFP-N1 alone or M-Omi-GFP together with empty vector or expression construct encoding XIAP, XIAP-BIR3, or caspase-9DN. The cells were also transfected with M-Omi-GFP expression construct in the presence of zVAD-FMK (20 μM).

XIAP-BIR3 = molecular target: T1, XIAP-BIR3 (Homo sapiens, UniProt P98170); test: GST-BIR3 precipitation of extracts of transfected 293T cells; format: binding; conditions: 24 hours after transfection
T1 construct: Omi associates directly with the BIR3 domain of XIAP
T1 sequence (P98170 238-358 limits assumed): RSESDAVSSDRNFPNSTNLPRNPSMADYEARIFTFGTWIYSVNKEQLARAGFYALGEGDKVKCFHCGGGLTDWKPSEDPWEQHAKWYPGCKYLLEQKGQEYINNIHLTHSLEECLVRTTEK
Procedure: FIG. 24 is a scanned image of an immunoblot with Flag-HRP antibody of 293T cells extracts precipitated with GST-BIR3 24 hours after transfection with the indicated expression constructs extracts.
Next, the contribution of the IAP binding activity of Omi to its proapoptotic activity was tested. The MTS of Omi was replaced with a GFP-IETD sequence and mutated at its active site Ser306 to Ala (FIG. 20, GFP-IETD-AVP). Of note, the presence of the IETD sequence between GFP and Omi-S/A allowed caspase-dependent cleavage at the IETD site after the Asp residue and release of mature Omi-S/A in the cytosol of the transfected 293 and MCF-7 cells (FIG. 23). […] Taken together, Omi not only can induce apoptosis through its serine protease activity but also via its ability to bind and neutralize IAPs.

B1: M-Omi-S/A-GFP: inactive (S306A) Omi-GFP fusion protein without the MTS (protein)
chain: MAVPSPPPASPRSQYNFIADVVEKTAPAVVYIEILDRHPFLGREVPISNGSGFVVAADGLIVTNAHVVADRRRVRVRLLSGDTYEAVVTAVDPVADIATLRIQTKEPLPTLPLGRSADVRQGEFVVAMGSPFALQNTITSGIVSSAQRPARDLGLPQTNVEYIQTDAAIDFGNAGGPLVNLDGEVIGVNTMKVTAGISFAIPSDRLREFLHRGEKKNSSSGISGSQRRYIGVMMLTLSPSILAELQLREPSFPDVQHGVLIHKVILGSPAHRAGLRPGDVILAIGEQMVQNAEDVYEAVRTQSQLAVQIRRGRETLTLYVTPEVTE
modifications: left off: large carriers
**Q.** With B1 as the molecule, how does the “induction of apoptosis in MCF-7 cells” value (MCF-7 cells) read?
**A.** not the inactive M-Omi-S/A-GFP, was able to induce apoptosis

**Q.** What about the “binding to XIAP-BIR3 (GST-BIR3)” value (XIAP-BIR3) of the same molecule?
**A.** do not bind XIAP-BIR3

Source: patent US20030073629A1, “Omi and domains thereof that disrupt IAP-caspase interaction” (priority 2001, published 2003)
